The target in data set [1] is c-JUN, recombinant;c-FOS, recombinant (Homo sapiens;Homo sapiens, UniProt P05412;P01100 1-331;1-380, |). The data set is described as follows: EMSA; 300 ng AP1; EMSA per LI-COR kit protocol (829-07910), 100 nM IR700 probe, 4-12% TBE gel in 0.5x TBE; binding buffer, pH and temperature not stated. As to conditions: protein: commercial;commercial; tags: ;; copies: 1;1; label: IRDye 700.

Data set [2] addresses IKZF1 (Ikaros), recombinant;c-JUN, recombinant;c-FOS, recombinant (Homo sapiens;Homo sapiens;Homo sapiens, UniProt Q13422;P05412;P01100 1-519;1-331;1-380, ||). Kind of data set: EMSA; 300 ng AP1 + 1 ug IKZF1; stronger than AP1 alone; EMSA per LI-COR kit protocol (829-07910), 100 nM IR700 probe, 4-12% TBE gel in 0.5x TBE; binding buffer, pH and temperature not stated. As to conditions: protein: commercial;commercial;commercial; tags: ;;; label: IRDye 700. For orientation: A gel shift assay detects complexes by their altered migration in electrophoresis.

The record followed here is publication PMC11717359, “A new pipeline SPICE identifies novel JUN-IKZF1 composite elements”.

Chain of IKZF1 (Ikaros), recombinant;c-JUN, recombinant;c-FOS, recombinant (Q13422 whole entry, chain 1 of 3): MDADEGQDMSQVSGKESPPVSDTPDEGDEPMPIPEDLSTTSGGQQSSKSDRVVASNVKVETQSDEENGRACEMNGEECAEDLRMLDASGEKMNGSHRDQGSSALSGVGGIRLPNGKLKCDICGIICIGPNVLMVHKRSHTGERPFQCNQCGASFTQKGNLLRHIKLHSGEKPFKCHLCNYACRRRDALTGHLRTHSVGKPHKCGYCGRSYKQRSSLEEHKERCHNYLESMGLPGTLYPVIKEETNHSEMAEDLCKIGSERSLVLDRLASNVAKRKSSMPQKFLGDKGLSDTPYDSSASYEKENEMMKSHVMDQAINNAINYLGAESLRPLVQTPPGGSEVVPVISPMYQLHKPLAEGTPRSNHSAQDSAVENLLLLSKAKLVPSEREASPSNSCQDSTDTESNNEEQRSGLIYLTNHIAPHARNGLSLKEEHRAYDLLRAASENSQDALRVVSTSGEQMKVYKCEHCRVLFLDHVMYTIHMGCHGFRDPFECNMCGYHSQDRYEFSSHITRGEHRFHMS
Chain of IKZF1 (Ikaros), recombinant;c-JUN, recombinant;c-FOS, recombinant (P05412 whole entry, chain 2 of 3): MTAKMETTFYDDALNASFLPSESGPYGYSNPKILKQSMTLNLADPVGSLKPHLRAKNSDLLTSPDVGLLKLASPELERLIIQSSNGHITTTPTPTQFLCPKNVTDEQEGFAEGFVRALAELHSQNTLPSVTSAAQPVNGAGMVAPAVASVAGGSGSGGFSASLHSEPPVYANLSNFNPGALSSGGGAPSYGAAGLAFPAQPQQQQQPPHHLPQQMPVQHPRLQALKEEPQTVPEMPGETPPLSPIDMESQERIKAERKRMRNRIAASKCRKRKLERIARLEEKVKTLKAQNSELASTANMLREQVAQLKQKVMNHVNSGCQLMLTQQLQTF
Chain of IKZF1 (Ikaros), recombinant;c-JUN, recombinant;c-FOS, recombinant (P01100 whole entry, chain 3 of 3): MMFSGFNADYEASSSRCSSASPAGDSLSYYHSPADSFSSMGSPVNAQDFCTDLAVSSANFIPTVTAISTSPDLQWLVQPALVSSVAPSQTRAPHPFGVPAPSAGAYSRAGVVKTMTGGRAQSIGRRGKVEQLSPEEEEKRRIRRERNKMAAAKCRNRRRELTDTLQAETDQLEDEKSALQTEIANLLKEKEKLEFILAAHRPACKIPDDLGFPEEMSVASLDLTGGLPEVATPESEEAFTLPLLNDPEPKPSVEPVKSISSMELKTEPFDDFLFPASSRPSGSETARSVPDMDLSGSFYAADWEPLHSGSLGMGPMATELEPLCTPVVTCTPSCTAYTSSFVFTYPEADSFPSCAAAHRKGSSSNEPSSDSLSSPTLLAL
Chain of c-JUN, recombinant;c-FOS, recombinant (P05412 whole entry, chain 1 of 2): as the sequence (P05412 whole entry, chain 2 of 3) above
Chain of c-JUN, recombinant;c-FOS, recombinant (P01100 whole entry, chain 2 of 2): as the sequence (P01100 whole entry, chain 3 of 3) above

B1: IL10 CNS9 WT probe (dsDNA)
DNA 1: GAGGTTGCAGTTTCGTTGTGAGTCAGGCCTGCTGA
DNA 2: TCAGCAGGCCTGACTCACAACGAAACTGCAACCTC
As for B1, the binding result in data set [1] and in data set [2] was “binds” throughout.
